Assay results: US10428140B2, “Anti-EphA4 antibody” (EISAI R&D MANAGEMENT CO., LTD., priority 2015, dated 2019)
Numbering of substitutions follows the chain as printed.

T1: human EphB1 (Homo sapiens, UniProt P54762)
T1 construct: a protein of the extracellular region of each human Eph receptor fused with the SEAP protein and the His tag; made in house; host or cells: Expi293F cells (culture supernatant)
T1 sequence (P54762 18-540 limits assumed): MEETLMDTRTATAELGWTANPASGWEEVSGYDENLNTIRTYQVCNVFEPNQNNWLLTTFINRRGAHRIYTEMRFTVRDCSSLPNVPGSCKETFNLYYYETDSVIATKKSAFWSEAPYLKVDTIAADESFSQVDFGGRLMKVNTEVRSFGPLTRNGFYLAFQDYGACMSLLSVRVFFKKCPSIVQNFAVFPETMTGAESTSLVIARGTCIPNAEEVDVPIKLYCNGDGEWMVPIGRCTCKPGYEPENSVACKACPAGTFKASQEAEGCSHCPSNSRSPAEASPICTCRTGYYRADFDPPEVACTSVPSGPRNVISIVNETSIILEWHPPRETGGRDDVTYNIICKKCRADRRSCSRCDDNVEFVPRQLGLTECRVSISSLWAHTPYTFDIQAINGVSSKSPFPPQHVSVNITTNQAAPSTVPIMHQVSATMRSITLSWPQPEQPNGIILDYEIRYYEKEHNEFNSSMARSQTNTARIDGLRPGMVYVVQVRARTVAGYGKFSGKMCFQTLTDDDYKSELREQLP

T2: human EphB6 (Homo sapiens, UniProt O15197)
T2 construct: a protein of the extracellular region of each human Eph receptor fused with the SEAP protein and the His tag; made in house; host or cells: Expi293F cells
T2 sequence (O15197 32-594 limits assumed): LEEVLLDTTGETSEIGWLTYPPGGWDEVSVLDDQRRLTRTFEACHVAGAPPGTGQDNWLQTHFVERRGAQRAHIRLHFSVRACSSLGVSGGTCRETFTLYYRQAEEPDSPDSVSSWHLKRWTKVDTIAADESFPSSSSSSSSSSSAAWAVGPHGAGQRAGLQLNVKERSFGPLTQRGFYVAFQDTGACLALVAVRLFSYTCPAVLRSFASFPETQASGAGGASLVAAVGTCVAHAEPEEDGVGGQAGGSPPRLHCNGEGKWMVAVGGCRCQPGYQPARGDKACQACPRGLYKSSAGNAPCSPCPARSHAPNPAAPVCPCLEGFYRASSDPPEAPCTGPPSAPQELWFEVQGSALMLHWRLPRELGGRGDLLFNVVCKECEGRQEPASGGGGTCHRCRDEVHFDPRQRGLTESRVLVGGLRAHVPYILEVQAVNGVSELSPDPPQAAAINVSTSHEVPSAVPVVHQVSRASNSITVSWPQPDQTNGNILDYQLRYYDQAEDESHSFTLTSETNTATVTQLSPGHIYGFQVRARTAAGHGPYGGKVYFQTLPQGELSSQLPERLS

T3: human EphA8 (Homo sapiens, UniProt P29322)
T3 construct: a protein of the extracellular region of each human Eph receptor fused with the SEAP protein and the His tag; made in house; host or cells: Expi293F cells (culture supernatant)
T3 sequence (P29322 28-542 limits assumed): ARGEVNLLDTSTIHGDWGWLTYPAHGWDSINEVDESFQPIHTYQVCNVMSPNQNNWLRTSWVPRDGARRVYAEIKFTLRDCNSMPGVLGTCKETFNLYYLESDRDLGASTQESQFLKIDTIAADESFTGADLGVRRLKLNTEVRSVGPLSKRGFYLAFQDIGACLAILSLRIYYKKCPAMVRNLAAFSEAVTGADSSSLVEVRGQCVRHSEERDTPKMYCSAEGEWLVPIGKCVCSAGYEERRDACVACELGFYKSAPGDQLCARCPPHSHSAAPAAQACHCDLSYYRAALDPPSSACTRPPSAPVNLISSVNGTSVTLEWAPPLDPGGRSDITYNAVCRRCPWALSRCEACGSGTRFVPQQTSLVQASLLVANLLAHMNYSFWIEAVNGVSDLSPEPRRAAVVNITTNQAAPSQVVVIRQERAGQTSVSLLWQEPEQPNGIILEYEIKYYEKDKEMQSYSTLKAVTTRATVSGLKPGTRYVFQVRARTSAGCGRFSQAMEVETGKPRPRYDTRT

B1: 141 (antibody, V domains shown)
VH: QVQLVQSGSELKKPGASVKVSCKASGYTFTDYSMHWVRQAPGQGLEWMGWINTETGEPTYADDFKGRFVFSLDTSVSTAYLQISSLKAEDTAVYYCARIPLYYYGSRYWYFDVWGQGTTVTVSS
VL: DIQMTQSPSSLSASVGDRVTITCRASENIYRNLAWYQQKPGKAPKLLVYAATNLADGVPSRFSGSGSGTDYTLTISSLQPEDFATYYCQHFWGTPWTFGQGTKVEIK
modifications: synthetic humanized antibody heavy chain variable region sequence; synthetic humanized antibody light chain variable region sequence
B2: 145 (antibody, V domains shown)
VH: B1 VH with E46K
VL: B1 VL with V48L, P80S
modifications: synthetic humanized antibody heavy chain variable region sequence; synthetic humanized antibody light chain variable region sequence
B3: 158 (antibody, V domains shown)
VH: B1 VH with E46K, D62Q, D63G, K65T
VL: B1 VL with K45Q, V48L
modifications: synthetic humanized antibody heavy chain variable region sequence; synthetic humanized antibody light chain variable region sequence
B4: 142 (antibody, V domains shown)
VH: B1 VH with E46K
VL: B1 VL
modifications: synthetic humanized antibody heavy chain variable region sequence; synthetic humanized antibody light chain variable region sequence
B5: 154 (antibody, V domains shown)
VH: B1 VH
VL: B1 VL with V48L, P80S
modifications: synthetic humanized antibody heavy chain variable region sequence; synthetic humanized antibody light chain variable region sequence
B6: 143 (antibody, V domains shown)
VH: B1 VH with V2I, E46K
VL: B1 VL
modifications: synthetic humanized antibody heavy chain variable region sequence; synthetic humanized antibody light chain variable region sequence
B7: 152 (antibody, V domains shown)
VH: B1 VH with D62Q, D63G, K65T
VL: B1 VL with V48L, P80S
modifications: synthetic humanized antibody heavy chain variable region sequence; synthetic humanized antibody light chain variable region sequence
B8: 155 (antibody, V domains shown)
VH: B1 VH with V2I, E46K
VL: B1 VL with V48L, P80S
modifications: synthetic humanized antibody heavy chain variable region sequence; synthetic humanized antibody light chain variable region sequence
B9: 157 (antibody, V domains shown)
VH: B1 VH with D62Q, D63G, K65T
VL: B1 VL with K45Q, V48L
modifications: synthetic humanized antibody heavy chain variable region sequence; synthetic humanized antibody light chain variable region sequence
B10: 151 (antibody, V domains shown)
VH: B1 VH with V2I, E46K, D62Q, D63G, K65T
VL: B1 VL with V48L, P80S
modifications: synthetic humanized antibody heavy chain variable region sequence; synthetic humanized antibody light chain variable region sequence
B11: 153 (antibody, V domains shown)
VH: B1 VH with E46K, D62Q, D63G, K65T
VL: B1 VL with V48L, P80S
modifications: synthetic humanized antibody heavy chain variable region sequence; synthetic humanized antibody light chain variable region sequence

Biological target: T1, human EphB1
Test: Selectivity ELISA of humanized antibodies for human Eph receptor
Assay type: binding
Details: coated protein 1 nM
In short: (§1)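 Human Eph ECD-SEAP-His fusions, harvested after 5 days of Expi293F expression, are captured on anti-His-coated wells (1 nM final). Bound humanized antibody is detected with HRP anti-IgG and TMB at 450 nm.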

hEphB1-SEAP-: absorbance at 450 nm, percentage with respect to hEphA4-SEAP-His as 100% [%] | Molecule
5.4 | B1
6.5 | B2
6.2 | B3
5.6 | B4
6.3 | B5
5.9 | B6
5.9 | B7
5.4 | B8
6.1 | B9
6.8 | B10
6.0 | B11

Biological target: T2, human EphB6
Test: as above
Assay type: binding
Details: coated protein 1 nM
In short: as §1

hEphB6-SEAP-: absorbance at 450 nm, percentage with respect to hEphA4-SEAP-His as 100% [%] | Molecule
5.4 | B1
6.6 | B2
6.3 | B3
5.6 | B4
6.4 | B5
5.6 | B6
5.9 | B7
5.6 | B8
6.3 | B9
7.1 | B10
6.2 | B11

Biological target: T4, human EphA5 (Homo sapiens, UniProt P54756)
T4 construct: a protein of the extracellular region of each human Eph receptor fused with the SEAP protein and the His tag; made in house; host or cells: Expi293F cells (culture supernatant)
Test: as above
Assay type: binding
Details: coated protein 1 nM
In short: as §1

T4 sequence (P54756 25-573 limits assumed): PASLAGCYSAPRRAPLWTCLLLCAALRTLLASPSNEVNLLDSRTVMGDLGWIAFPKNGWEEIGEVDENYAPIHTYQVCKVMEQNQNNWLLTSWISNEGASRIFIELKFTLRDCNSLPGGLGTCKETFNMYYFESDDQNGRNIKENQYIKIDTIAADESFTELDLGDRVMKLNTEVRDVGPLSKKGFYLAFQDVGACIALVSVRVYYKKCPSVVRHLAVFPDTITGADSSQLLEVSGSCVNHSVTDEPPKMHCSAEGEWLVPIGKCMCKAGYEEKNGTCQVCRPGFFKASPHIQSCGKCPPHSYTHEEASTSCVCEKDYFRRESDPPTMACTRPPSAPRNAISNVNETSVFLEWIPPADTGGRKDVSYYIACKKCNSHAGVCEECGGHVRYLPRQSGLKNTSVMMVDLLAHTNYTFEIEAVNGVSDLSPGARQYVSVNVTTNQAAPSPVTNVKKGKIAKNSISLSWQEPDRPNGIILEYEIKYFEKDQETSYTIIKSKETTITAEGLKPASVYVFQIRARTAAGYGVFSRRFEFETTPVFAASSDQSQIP

hEphA5-SEAP-: absorbance at 450 nm, percentage with respect to hEphA4-SEAP-His as 100% [%] | Molecule
5.3 | B1
6.6 | B2
6.7 | B3
5.7 | B4
6.3 | B5
6.1 | B6
5.8 | B7
5.6 | B8
6.1 | B9
7.0 | B10
6.1 | B11

Biological target: T3, human EphA8
Test: as above
Assay type: binding
Details: coated protein 1 nM
In short: as §1

hEphA8-SEAP-: absorbance at 450 nm, percentage with respect to hEphA4-SEAP-His as 100% [%] | Molecule
5.5 | B1
6.6 | B2
6.4 | B3
5.7 | B4
5.5 | B5
6.0 | B6
6.0 | B7
5.5 | B8
6.0 | B9
6.9 | B10
6.1 | B11
